Assay results: patent US20070244048A1 (published 2007)
Like-named read-outs stand apart in the source and are kept apart here. Non-standard residues stand in square brackets, D forms with d. No end group written: not given here.

Tests used:
human NMUR1 [1] = target: T1, human NMUR1 (human, UniProt Q9HB89 1-426); assay: cell-based or functional assay
T1 sequence (looked up): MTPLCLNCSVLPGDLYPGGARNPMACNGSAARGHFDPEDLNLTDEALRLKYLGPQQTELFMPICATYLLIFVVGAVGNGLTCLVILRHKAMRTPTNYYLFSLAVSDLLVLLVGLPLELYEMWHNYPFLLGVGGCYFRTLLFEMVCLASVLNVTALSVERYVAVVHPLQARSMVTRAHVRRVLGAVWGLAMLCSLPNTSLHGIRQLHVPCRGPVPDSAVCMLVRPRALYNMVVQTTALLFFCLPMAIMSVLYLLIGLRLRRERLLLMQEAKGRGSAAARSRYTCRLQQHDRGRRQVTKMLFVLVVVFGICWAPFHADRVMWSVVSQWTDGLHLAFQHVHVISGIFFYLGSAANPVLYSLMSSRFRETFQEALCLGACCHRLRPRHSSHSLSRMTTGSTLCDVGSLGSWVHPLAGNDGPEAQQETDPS

human NMUR2 [2] = target: T2, human NMUR2 (human, UniProt Q9GZQ4 1-415); assay: cell-based or functional assay
human NMUR2 [3] = target: T2, human NMUR2; assay: 125I-hNMU-25 displacement, HEK cell membranes
Protocol: (§1) Confluent cell monolayers expressing NMU receptors (the HEK cells described above) were harvested with phosphate buffered saline, collected by centrifugation, and resuspended in membrane buffer (50 mM TrisCl pH 7.4, 5 mM MgCl₂, 1× Protease Inhibitor Cocktail, 10 μM phosphoramidon). After the cell pellet was homogenized, the solution was centrifuged at 18,000 rpm for 20 minutes at 4° C. The pellet was resuspended in membrane buffer to yield a final concentration of 0.5-5 μg/μL of membrane and stored at −80° C.
(§2) Experiments were performed in assay buffer (25 mM TrisCl, pH 7.4, 10 mM MgCl₂, 2mM EDTA, 1× Protease Inhibitor Cocktail, 100 μg/mL Bacitricin, 10 μM phosphoramidon) in 200 μL volumes in a 96-well format using 2-5 μg of membrane and […] ¹²⁵I-hNMU-25 (about 12,000 cpm/well). For non-specific binding, 1 μM hNMU-25 was added. About 5 μL of peptides were added to measure antagonist activity, and the entire reaction was incubated at room temperature with shaking for 80 minutes. The reaction was terminated by rapid filtration through 0.3% poly-ethylenimine presoaked Millipore 96-well filter plates and washed with ice-cold buffer (5 mM TrisCl pH 7.4, 10 mM MgCl₂, 2.5 mM EDTA, 0.04% Triton X-100). Plates were air-dried overnight at room temperature and recovered radioactivity was determined by standard scintillation counting. IC₅₀ values were determined using GraphPad Prism software.
(§3) Concentration-response curves and radioligand-binding data were fitted using Prism (GraphPad Software). Results are summarized below in Tables 8 and 9.

[4] = target: T3, human NMUR1 (human), Q9HB89; assay: 125I-hNMU-25 displacement, HEK cell membranes; conditions: remark: other sources report otherwise
T3 chain: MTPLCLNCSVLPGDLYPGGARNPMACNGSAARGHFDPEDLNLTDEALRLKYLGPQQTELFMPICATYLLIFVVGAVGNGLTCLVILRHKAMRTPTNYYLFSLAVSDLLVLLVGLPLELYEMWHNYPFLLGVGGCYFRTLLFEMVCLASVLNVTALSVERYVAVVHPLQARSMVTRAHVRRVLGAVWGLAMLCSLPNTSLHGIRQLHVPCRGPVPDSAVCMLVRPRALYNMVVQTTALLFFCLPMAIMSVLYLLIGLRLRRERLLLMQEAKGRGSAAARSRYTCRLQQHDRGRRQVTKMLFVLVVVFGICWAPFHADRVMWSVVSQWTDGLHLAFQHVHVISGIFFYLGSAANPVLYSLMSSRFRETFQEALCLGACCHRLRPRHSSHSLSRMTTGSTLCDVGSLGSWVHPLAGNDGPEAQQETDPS

human NMUR1 [5] = target: T1, human NMUR1; assay: cell-based or functional assay; remark: listed apart in the source
human NMUR2 [6] = target: T2, human NMUR2; assay: cell-based or functional assay; remark: listed apart in the source
mouse NMUR1-ATG [7] = target: T4, mouse NMUR1-ATG (mouse, UniProt O55040 1-428); assay: cell-based or functional assay
T4 sequence (looked up): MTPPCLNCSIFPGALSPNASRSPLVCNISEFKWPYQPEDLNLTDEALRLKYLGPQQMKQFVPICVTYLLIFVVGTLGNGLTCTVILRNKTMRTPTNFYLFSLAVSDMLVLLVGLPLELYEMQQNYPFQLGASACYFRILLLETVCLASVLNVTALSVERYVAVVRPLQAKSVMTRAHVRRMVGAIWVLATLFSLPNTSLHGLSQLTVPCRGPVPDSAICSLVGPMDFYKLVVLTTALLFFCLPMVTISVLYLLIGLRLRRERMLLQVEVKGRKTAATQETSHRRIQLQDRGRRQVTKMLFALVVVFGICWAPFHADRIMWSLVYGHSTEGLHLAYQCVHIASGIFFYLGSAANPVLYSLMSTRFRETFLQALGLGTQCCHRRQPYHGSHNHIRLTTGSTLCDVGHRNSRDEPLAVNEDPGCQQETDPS

mouse NMUR1-CTG [8] = target: T5, mouse NMUR1-CTG (mouse, UniProt O55040 1-428); assay: cell-based or functional assay
T5 sequence (looked up): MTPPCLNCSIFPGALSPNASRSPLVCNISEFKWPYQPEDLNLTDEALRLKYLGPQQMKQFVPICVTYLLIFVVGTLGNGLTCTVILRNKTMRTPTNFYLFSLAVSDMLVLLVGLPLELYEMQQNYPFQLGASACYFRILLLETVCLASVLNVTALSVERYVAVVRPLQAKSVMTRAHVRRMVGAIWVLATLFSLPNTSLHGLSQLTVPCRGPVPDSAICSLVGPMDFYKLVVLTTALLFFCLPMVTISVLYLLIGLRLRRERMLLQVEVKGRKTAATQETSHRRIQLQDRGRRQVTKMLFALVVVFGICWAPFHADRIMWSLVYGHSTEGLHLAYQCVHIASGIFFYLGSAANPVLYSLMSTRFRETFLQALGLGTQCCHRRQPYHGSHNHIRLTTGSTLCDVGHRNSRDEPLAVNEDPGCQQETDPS

mouse NMUR2 [9] = target: T6, mouse NMUR2 (mouse, UniProt Q8BZ39 1-395); assay: cell-based or functional assay
rat NMUR1-ATG [10] = target: T7, rat NMUR1-ATG (rat, UniProt Q9JJI5 1-425); assay: cell-based or functional assay
T7 sequence (looked up): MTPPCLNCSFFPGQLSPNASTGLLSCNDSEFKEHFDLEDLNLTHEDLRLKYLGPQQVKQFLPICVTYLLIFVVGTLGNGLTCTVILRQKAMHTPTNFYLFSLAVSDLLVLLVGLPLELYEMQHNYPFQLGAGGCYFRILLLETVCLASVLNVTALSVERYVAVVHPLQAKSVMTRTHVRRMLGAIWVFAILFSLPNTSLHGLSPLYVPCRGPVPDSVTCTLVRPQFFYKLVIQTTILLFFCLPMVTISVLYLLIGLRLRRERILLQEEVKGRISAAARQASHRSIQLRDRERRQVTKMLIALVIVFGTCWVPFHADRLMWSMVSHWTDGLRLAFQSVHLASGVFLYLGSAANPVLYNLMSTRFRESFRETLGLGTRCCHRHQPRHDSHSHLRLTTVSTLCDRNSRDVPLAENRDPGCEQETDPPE

rat NMUR1-TTG [11] = target: T8, rat NMUR1-TTG (rat, UniProt Q9JJI5 1-425); assay: cell-based or functional assay
T8 sequence (looked up): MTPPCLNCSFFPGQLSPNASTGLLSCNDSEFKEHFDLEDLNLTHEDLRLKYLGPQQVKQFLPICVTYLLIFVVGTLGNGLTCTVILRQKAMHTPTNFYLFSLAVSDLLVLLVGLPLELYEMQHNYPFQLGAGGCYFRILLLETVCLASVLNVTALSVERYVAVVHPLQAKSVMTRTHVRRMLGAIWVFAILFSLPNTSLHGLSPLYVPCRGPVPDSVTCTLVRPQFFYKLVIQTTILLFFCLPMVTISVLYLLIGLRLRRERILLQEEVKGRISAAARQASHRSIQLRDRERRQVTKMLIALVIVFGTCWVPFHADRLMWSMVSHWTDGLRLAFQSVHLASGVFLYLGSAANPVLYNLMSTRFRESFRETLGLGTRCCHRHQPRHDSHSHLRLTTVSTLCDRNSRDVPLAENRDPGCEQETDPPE

rat NMUR2 [12] = target: T9, rat NMUR2 (rat, UniProt Q9ESQ4 1-395); assay: cell-based or functional assay
human NMUR1 [13] = target: T1, human NMUR1; assay: cell-based or functional assay; remark: listed apart in the source
human NMUR2 [14] = target: T2, human NMUR2; assay: cell-based or functional assay; remark: listed apart in the source
human NMUR1 [15] = target: T1, human NMUR1; assay: 125I-hNMU-25 displacement, cell membranes
human NMUR2 [16] = target: T2, human NMUR2; assay: 125I-hNMU-25 displacement, cell membranes
mouse NMUR1-ATG [17] = target: T4, mouse NMUR1-ATG; assay: 125I-hNMU-25 displacement, cell membranes
mouse NMUR1-CTG [18] = target: T5, mouse NMUR1-CTG; assay: 125I-hNMU-25 displacement, cell membranes
mouse NMUR2 [19] = target: T6, mouse NMUR2; assay: 125I-hNMU-25 displacement, cell membranes
rat NMUR1-ATG [20] = target: T7, rat NMUR1-ATG; assay: 125I-hNMU-25 displacement, cell membranes
rat NMUR1-TTG [21] = target: T8, rat NMUR1-TTG; assay: 125I-hNMU-25 displacement, cell membranes
rat NMUR2 [22] = target: T9, rat NMUR2; assay: 125I-hNMU-25 displacement, cell membranes
human NMUR1 [23] = target: T1, human NMUR1; assay: 125I-hNMU-25 displacement, HEK cell membranes
Protocol: as §1, §2, §3

T2 sequence (Q9GZQ4 whole entry): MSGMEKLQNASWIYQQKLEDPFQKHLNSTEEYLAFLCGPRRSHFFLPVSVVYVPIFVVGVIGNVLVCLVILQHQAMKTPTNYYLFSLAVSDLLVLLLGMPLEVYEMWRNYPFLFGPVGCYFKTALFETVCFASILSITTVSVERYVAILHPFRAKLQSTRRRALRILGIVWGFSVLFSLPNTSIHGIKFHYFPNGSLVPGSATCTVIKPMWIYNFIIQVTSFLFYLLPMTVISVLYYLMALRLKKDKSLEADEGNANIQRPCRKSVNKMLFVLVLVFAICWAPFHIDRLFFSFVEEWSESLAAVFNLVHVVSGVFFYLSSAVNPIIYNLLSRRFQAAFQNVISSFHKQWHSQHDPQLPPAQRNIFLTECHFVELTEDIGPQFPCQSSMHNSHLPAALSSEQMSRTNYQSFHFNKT
T9 sequence (Q9ESQ4 whole entry): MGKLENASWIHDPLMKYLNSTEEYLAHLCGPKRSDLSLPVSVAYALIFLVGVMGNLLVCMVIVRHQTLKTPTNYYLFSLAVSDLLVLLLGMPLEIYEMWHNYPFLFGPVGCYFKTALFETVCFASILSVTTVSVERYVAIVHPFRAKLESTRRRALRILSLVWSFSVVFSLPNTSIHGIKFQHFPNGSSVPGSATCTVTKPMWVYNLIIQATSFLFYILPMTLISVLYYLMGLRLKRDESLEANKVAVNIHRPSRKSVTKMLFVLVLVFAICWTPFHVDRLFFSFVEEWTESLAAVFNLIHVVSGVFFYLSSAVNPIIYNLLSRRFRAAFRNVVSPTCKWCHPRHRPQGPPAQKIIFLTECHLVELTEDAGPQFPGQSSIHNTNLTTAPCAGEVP
T6 sequence (Q8BZ39 whole entry): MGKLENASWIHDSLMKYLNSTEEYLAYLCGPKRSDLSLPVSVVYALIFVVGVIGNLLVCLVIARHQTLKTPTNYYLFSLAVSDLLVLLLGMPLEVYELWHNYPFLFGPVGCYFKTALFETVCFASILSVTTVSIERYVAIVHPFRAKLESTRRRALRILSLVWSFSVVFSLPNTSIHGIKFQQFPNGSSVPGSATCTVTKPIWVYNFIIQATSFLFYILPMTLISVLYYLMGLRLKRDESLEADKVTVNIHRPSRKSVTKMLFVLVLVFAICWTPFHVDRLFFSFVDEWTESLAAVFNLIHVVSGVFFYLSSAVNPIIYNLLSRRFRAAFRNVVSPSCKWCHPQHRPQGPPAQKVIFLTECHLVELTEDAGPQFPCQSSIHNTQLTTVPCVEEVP

B1: neuromedin U receptor agonist L (peptide)
peptide: FWLFRARN-NH2
B1 was tested, and the “% activity” value (human NMUR1 [1]) was 74%, the “EC50” value (human NMUR1 [1]) was over 1000 nM and the “% activity” value (human NMUR2 [2]) was 100%. For the same binder, the “EC50” value (human NMUR2 [2]) was 6.2 nM, the “% activity (binding)” value (human NMUR2 [3]) was 100% and the IC50 (human NMUR2 [3]) was 37 nM. For the same binder, the % activity (binding) [4] was 0%.

B2: neuromedin U receptor agonist H (peptide)
peptide: FRVDEEFQSPFASQSRGYF[dL]WRPRN-NH2
modifications: not fully specified
Binder B2 has a % activity (human NMUR1 [5]) of 90%, an IC50 (nM), functional (human NMUR1 [5]) of 1.25 nM and a % activity (human NMUR2 [6]) of 0%. The IC50 (nM), functional (human NMUR2 [6]) was over 1000 nM, the % activity (mouse NMUR1-ATG [7]) was 90% and the IC50 (nM), functional (mouse NMUR1-ATG [7]) was 25 nM. For the same binder, the % activity (mouse NMUR1-CTG [8]) was 77%, the IC50 (nM), functional (mouse NMUR1-CTG [8]) was 66 nM and the % activity (mouse NMUR2 [9]) was 40%. The IC50 (nM), functional (mouse NMUR2 [9]) was over 1000 nM, the % activity (rat NMUR1-ATG [10]) was 95% and the IC50 (nM), functional (rat NMUR1-ATG [10]) was 31.1 nM. It also gave a % activity (rat NMUR1-TTG [11]) of 91%, an IC50 (nM), functional (rat NMUR1-TTG [11]) of 153 nM and a % activity (rat NMUR2 [12]) of 42%. It also gave an IC50 (nM), functional (rat NMUR2 [12]) of over 1000 nM, a % activity (human NMUR1 [13]) of 88% and an IC50 (nM), functional (human NMUR1 [13]) of 19 nM. It also gave an IC50 (nM), functional (human NMUR2 [14]) of over 1000 nM, a % inhibition of NMU-25 binding (human NMUR1 [15]) of 93% and an IC50 (human NMUR1 [15]) of 1.1 nM. It also gave a % inhibition of NMU-25 binding (human NMUR2 [16]) of 7%, an IC50 (human NMUR2 [16]) of 782 nM and a % inhibition of NMU-25 binding (mouse NMUR1-ATG [17]) of 77%. For the same binder, the IC50 (mouse NMUR1-ATG [17]) was 66 nM, the % inhibition of NMU-25 binding (mouse NMUR1-CTG [18]) was 83% and the IC50 (mouse NMUR1-CTG [18]) was 25 nM. It also gave a % inhibition of NMU-25 binding (mouse NMUR2 [19]) of 20%, a % inhibition of NMU-25 binding (rat NMUR1-ATG [20]) of 100% and an IC50 (rat NMUR1-ATG [20]) of 15.9 nM. For the same binder, the % inhibition of NMU-25 binding (rat NMUR1-TTG [21]) was 100%, the IC50 (rat NMUR1-TTG [21]) was 11 nM and the % inhibition of NMU-25 binding (rat NMUR2 [22]) was 0%. For the same binder, the % activity (binding) (human NMUR1 [23]) was 93%, the IC50 (human NMUR1 [23]) was 1.1 nM and the % activity (binding) (human NMUR2 [3]) was 7%. The IC50 (human NMUR2 [3]) was 780 nM.
